Experimental findings from EP4714976A1 (Sunshine Lake Pharma Co., Ltd., dated 2026) are described below.

In assay [1] the target is T1, FGFR2c (acro) (UniProt P21802 22-377). The experiment in a line: ELISA. A general note: An ELISA detects its analyte on a solid surface through an enzyme-linked reagent.
Assay [2] addresses T2, FGFR4 (acro) (UniProt P22455 22-369).
T2 sequence (looked up): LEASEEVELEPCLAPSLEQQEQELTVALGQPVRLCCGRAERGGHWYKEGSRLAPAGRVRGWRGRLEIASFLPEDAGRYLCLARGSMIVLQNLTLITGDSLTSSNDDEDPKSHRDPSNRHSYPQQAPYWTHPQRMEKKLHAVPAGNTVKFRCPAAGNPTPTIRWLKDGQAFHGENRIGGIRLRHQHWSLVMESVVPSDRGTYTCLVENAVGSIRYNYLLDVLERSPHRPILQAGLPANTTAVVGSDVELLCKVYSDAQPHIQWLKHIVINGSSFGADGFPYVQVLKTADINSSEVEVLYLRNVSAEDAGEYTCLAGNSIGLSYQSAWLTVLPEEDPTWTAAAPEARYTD
In words: ELISA.

The target of assay [3] is T3, recombinant cynomolgus monkey FGFR2b (cynomolgus monkey).
T3 construct: extracellular domain; bought; also called cynomolgus macaque FGFR2b
The experiment in a line: ELISA, antibody 1ug/mL.

Assay [4] addresses T1, FGFR2c (acro). The experiment in a line: ELISA, antibody 10 µg/mL.
The target of assay [5] is T2, FGFR4 (acro). In words: ELISA, antibody 10 µg/mL.
Assay [6] concerns the target T4, human FGFR2b (Kaixia Biotechnology, catalog number FGR-HM1BB) (human, UniProt P21802-3 22-378).
T4 construct: extracellular domain; bought; also called hFGFR2b; human FGFR2b protein
The experiment in a line: BLI, antibody on AHC2 sensor.

The target in a further assay is T5, FGFR2b on KATO III cells (human, UniProt P21802-3 22-822).
T5 construct: whole, on cells; also called KATO III cells that overexpress FGFR2b
T5 sequence (P21802 other isoform, or with tags, fused parts or gaps): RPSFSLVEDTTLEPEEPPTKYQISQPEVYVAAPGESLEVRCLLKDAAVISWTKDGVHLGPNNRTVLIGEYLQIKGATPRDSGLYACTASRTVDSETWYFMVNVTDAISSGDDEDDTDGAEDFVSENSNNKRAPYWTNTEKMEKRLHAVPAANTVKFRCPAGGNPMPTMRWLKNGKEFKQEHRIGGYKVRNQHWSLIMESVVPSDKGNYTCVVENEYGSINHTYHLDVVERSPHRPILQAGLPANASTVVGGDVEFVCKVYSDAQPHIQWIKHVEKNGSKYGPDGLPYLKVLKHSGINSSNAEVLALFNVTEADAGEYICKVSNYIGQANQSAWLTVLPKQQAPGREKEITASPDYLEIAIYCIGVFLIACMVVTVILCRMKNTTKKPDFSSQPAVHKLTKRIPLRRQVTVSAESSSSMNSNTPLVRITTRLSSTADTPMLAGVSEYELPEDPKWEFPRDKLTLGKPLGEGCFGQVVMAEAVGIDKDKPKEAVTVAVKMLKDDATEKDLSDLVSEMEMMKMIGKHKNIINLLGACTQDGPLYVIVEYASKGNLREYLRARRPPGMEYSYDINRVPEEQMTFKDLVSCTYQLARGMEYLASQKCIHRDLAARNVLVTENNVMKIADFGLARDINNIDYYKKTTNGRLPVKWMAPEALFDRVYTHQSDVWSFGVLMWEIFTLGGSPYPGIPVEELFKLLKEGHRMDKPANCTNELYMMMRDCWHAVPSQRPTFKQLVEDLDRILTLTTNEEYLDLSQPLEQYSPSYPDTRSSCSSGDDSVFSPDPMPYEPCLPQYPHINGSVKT
The experiment in a line: flow cytometry, KATO III cells.

Assay [7] deals with T4, human FGFR2b (Kaixia Biotechnology, …). The experiment in a line: ELISA, FGFR2b coated at 1 µg/ml.

T4 sequence (P21802 other isoform, or with tags, fused parts or gaps): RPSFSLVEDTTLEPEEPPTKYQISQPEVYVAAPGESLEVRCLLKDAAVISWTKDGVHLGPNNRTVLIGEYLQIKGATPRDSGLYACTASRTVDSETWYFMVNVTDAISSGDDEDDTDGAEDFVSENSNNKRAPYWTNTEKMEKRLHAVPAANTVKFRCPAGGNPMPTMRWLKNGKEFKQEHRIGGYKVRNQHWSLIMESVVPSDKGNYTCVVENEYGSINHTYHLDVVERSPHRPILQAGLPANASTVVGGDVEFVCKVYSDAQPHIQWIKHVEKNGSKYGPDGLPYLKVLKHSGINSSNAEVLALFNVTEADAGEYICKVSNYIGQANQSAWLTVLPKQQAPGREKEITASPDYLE
T1 sequence (P21802 22-377): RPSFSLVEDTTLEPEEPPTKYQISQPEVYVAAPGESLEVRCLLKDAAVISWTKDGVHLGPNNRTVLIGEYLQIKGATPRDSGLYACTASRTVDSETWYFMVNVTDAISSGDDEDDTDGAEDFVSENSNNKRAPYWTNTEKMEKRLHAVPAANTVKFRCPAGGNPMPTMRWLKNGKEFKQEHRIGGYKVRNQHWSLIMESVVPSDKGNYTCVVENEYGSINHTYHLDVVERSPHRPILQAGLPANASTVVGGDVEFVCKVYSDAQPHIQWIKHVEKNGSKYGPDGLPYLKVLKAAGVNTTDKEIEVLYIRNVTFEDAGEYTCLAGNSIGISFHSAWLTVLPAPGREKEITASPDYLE

B1: 3E7 scFv-Fc (Fc fusion)
chain: QVQLQQSGAELVKPGASVKMSCKASGYTFTIYNIHWVRQTPGQGLEWIGLIYPDNGDTSYNQKFKAKATLTADKSSSTAYMQLSSLTSEDSAVYYCARGGFDYWGQGTTLTVSSGGGGSGGGGSGGGGSNIVMTQSQKFMSTSVGDRVSVTCKASQNVGTNVAWYQQKPGQSPKALIYSASYRYSGVPDRFTGSGSGTDFTLTISGVQAEDLADYYCQQHYNTPYTFGGGTKLEIKESKYGPPCPPCPAPEAAGGPSVFLFPPKPKDTLMISRTPEVTCVVVDVSQEDPEVQFNWYVDGVEVHNAKTKPREEQFNSTYRVVSVLTVLHQDWLNGKEYKCKVSNKGLPSSIEKTISKAKGQPREPQVYTLPPSQEEMTKNQVSLTCLVKGFYPSDIAVEWESNGQPENNYKTTPPVLDSDGSFFLYSKLTVDKSRWQEGNVFSCSVMHEALHNHYTQKSLSLSLG
notes: scFv-Fc dimer
For B1, the binding result with FGFR2c (acro) [1] and with FGFR4 (acro) [2] was “no binding (tested: 10 µg/mL)” each time. In addition, the “OD (450 nm) value” in assay [3] amounted to 3.15; with FGFR2c (acro) [4] it was 0.114; with FGFR4 (acro) [5], 0.125. The Kd (usually the free concentration of one partner at which half of the binding sites on the other are occupied at equilibrium, for simple one-to-one binding) in assay [6] came out at 4.35 nM. Also, the koff (in general, a measure of how fast the partners let go of each other) in assay [6] turned out to be 0.00111 s⁻¹. Further, the kon (as a rule, a measure of how fast the partners come together) in assay [6] was 256000 M⁻¹ s⁻¹. The results for the EC50 (with FGFR2b on KATO III cells; in assay [7]) were 0.298 µg/mL and 0.0154 µg/mL, respectively.

B2: 3A3 scFv-Fc (Fc fusion)
chain: QVQLQQSGAELVKPGASVKMSCKASGYTFTTYNIHWVRQTPGQGLEWIGLIYPDNGDTSYNQKFKAKATLTADKSSSTAYMHLSSLTSEDSAVYYCARGGFDYWGQGTTLTVSSGGGGSGGGGSGGGGSDIVMTQSHKFMSTSVGDRVSITCKASQDVNTDVSWYQQKPGQSPKLLIYSASYRYTGVPTRFTGSGSGTDFTFTISGVQAEDLADYYCQQHYNTPYTFGGGTRLEIKESKYGPPCPPCPAPEAAGGPSVFLFPPKPKDTLMISRTPEVTCVVVDVSQEDPEVQFNWYVDGVEVHNAKTKPREEQFNSTYRVVSVLTVLHQDWLNGKEYKCKVSNKGLPSSIEKTISKAKGQPREPQVYTLPPSQEEMTKNQVSLTCLVKGFYPSDIAVEWESNGQPENNYKTTPPVLDSDGSFFLYSKLTVDKSRWQEGNVFSCSVMHEALHNHYTQKSLSLSLG
notes: scFv-Fc dimer
As for B2, the binding result with FGFR2c (acro) [1] and in the assay with FGFR4 (acro) [2] was “no binding (tested: 10 µg/mL)” throughout. Also, the “OD (450 nm) value” was found to be 3.2 in assay [3], 0.137 with FGFR2c (acro) [4] and 0.136 with FGFR4 (acro) [5]. In assay [6], this molecule showed a dissociation constant (Kd) of 3.71 nM. Also, the dissociation rate constant (koff) in assay [6] was found to be 0.00133 s⁻¹. In assay [6], this molecule returned a kon of 359000 M⁻¹ s⁻¹. Also, the concentration for a half-maximal effect (EC50) – broadly, the concentration needed to bring the measured effect to its halfway point – in the assay with FGFR2b on KATO III cells amounted to 0.236 µg/mL; in assay [7], 0.0216 µg/mL.

B3: 3H6 scFv-Fc (Fc fusion)
chain: QVQLQQSGAELVKPGASVKMSCKASGYTFSFYNIHWVRQTPGQGLEWIGLIYPDNGDTSYNQKFKAKATLTADKSSSTAYMQLSSLTSEDSAVYYCARGGFDYWGQGTTLTVSSGGGGSGGGGSGGGGSDIQMTQSPASLSASVGETVTITCRASENIYSYLAWYQQKQGKSPQLLVYNAKTLAEGVPSRFSGSGSGTQFSLKINSLQPEDFGSYYCQHHYGTPYTFGGGTKLEMKESKYGPPCPPCPAPEAAGGPSVFLFPPKPKDTLMISRTPEVTCVVVDVSQEDPEVQFNWYVDGVEVHNAKTKPREEQFNSTYRVVSVLTVLHQDWLNGKEYKCKVSNKGLPSSIEKTISKAKGQPREPQVYTLPPSQEEMTKNQVSLTCLVKGFYPSDIAVEWESNGQPENNYKTTPPVLDSDGSFFLYSKLTVDKSRWQEGNVFSCSVMHEALHNHYTQKSLSLSLG
notes: scFv-Fc dimer
With B3, the binding result with FGFR2c (acro) [1] and in the assay with FGFR4 (acro) [2] was “no binding (tested: 10 µg/mL)” throughout. Further, the “OD (450 nm) value” in assay [3] was determined as 3.35; with FGFR2c (acro) [4], 0.093; with FGFR4 (acro) [5], 0.157. In addition, binding in assay [6] was characterised by a dissociation constant (Kd) of 8.41 nM. Further, the off-rate (koff) in assay [6] turned out to be 0.00166 s⁻¹. Also, the kon in assay [6] was determined as 198000 M⁻¹ s⁻¹. Besides, the EC50 worked out at 0.226 µg/mL in the assay with FGFR2b on KATO III cells and 0.0128 µg/mL in assay [7].

B4: 3A12 scFv-Fc (Fc fusion)
chain: EVQLQQSGAELVKPGASVKMSCKASGYTFSFYNVHWVRQTPGQGLEWIGLIYPDNGDTSYNQKFKAKATLTADKSSSAAYMQLSSLTSEDSAVYYCARGGFDYWGQGTSLTVSSGGGGSGGGGSGGGGSDIVMTQSHKFMSTSVGDRVNITCKASQDVSTAVAWYQQKPGQSPKLLIYSASYRYSGVPDRFTGSGSGTDFTFTISSVQAEDLAVYYCQQHYSTPYTFGGGTKLEMKESKYGPPCPPCPAPEAAGGPSVFLFPPKPKDTLMISRTPEVTCVVVDVSQEDPEVQFNWYVDGVEVHNAKTKPREEQFNSTYRVVSVLTVLHQDWLNGKEYKCKVSNKGLPSSIEKTISKAKGQPREPQVYTLPPSQEEMTKNQVSLTCLVKGFYPSDIAVEWESNGQPENNYKTTPPVLDSDGSFFLYSKLTVDKSRWQEGNVFSCSVMHEALHNHYTQKSLSLSLG
notes: scFv-Fc dimer
Turning to B4, the binding result with FGFR2c (acro) [1] and with FGFR4 (acro) [2] was “no binding (tested: 10 µg/mL)” throughout. The “OD (450 nm) value” in assay [3] was 3.27; with FGFR2c (acro) [4] it was 0.098; in the assay with FGFR4 (acro) [5], 0.106. The dissociation constant Kd in assay [6] came to 2.82 nM. This molecule also showed a koff in assay [6] of 0.000662 s⁻¹. In addition, in assay [6], the on-rate (kon) is 235000 M⁻¹ s⁻¹. In addition, the 50% effective concentration (EC50) stood at 0.292 µg/mL in the assay with FGFR2b on KATO III cells and 0.0128 µg/mL in assay [7].

B5: 2B1 scFv-Fc (Fc fusion)
chain: EVQLQQSGAELVKPGASVKMSCKASGYTFASYNLHWVKQTPGQGLEWIGLIYPENGDTSYNQKFKGKATLTADKSSSTAYIQLSSLTSEDSAVYFCARGGFDYWGQGTSLTVSSGGGGSGGGGSGGGGSDIQMIQSPASLSVSVGETVTITCRASENIYSNLAWYQQKQGKSPQLLVYNAKTLADGVPSRFSGSGSGTQYSLKINSLQPEDFGSYYCQHFWSTPYTFGGGTKLEIKESKYGPPCPPCPAPEAAGGPSVFLFPPKPKDTLMISRTPEVTCVVVDVSQEDPEVQFNWYVDGVEVHNAKTKPREEQFNSTYRVVSVLTVLHQDWLNGKEYKCKVSNKGLPSSIEKTISKAKGQPREPQVYTLPPSQEEMTKNQVSLTCLVKGFYPSDIAVEWESNGQPENNYKTTPPVLDSDGSFFLYSKLTVDKSRWQEGNVFSCSVMHEALHNHYTQKSLSLSLG
notes: scFv-Fc dimer
B5: the binding result in the assay with FGFR2c (acro) [1] and in the assay with FGFR4 (acro) [2] was “no binding (tested: 10 µg/mL)” in each case. Further, the “OD (450 nm) value” stood at 3 in assay [3], 0.098 with FGFR2c (acro) [4] and 0.103 with FGFR4 (acro) [5]. The molecule further registered a Kd in assay [6] of 6.67 nM. The molecule also registered an off-rate (koff) in assay [6] of 0.00179 s⁻¹. The kon in assay [6] was 268000 M⁻¹ s⁻¹. Besides, the values for the half-maximal effective concentration (EC50) (with FGFR2b on KATO III cells; in assay [7]) were 0.195 µg/mL and 0.0276 µg/mL, respectively.

B6: 2B2 scFv-Fc (Fc fusion)
chain: QLQLQQSGAELVKPGASVKMSCKASGYTFASYNLHWVKQTPGQGLEWIGLIYPENGDTSYNQKFKDKATLTADKSSTTAYIQLSSLASEDSAVYFCARGGFDYWGQGTTLTVSSGGGGSGGGGSGGGGSDIVMTQSQKFMSTSVGDRVSVTCKASQNVGTNVAWYQQKPGQSPKALIYSASYRYSGVPDRFTGSGSGTDYTLTISSVQAEDLALYYCQQHYSTPYTFGGGTKLELKESKYGPPCPPCPAPEAAGGPSVFLFPPKPKDTLMISRTPEVTCVVVDVSQEDPEVQFNWYVDGVEVHNAKTKPREEQFNSTYRVVSVLTVLHQDWLNGKEYKCKVSNKGLPSSIEKTISKAKGQPREPQVYTLPPSQEEMTKNQVSLTCLVKGFYPSDIAVEWESNGQPENNYKTTPPVLDSDGSFFLYSKLTVDKSRWQEGNVFSCSVMHEALHNHYTQKSLSLSLG
notes: scFv-Fc dimer
As for B6, the binding result with FGFR2c (acro) [1] and in the assay with FGFR4 (acro) [2] was “no binding (tested: 10 µg/mL)” each time. Also, the results for the “OD (450 nm) value” (in assay [3]; in the assay with FGFR2c (acro) [4]; in the assay with FGFR4 (acro) [5]) were 3.19, 0.113 and 0.093, respectively. The molecule further had a Kd in assay [6] of 6.18 nM. This molecule also registered a koff in assay [6] of 0.00286 s⁻¹. In assay [6], this molecule showed a kon of 462000 M⁻¹ s⁻¹. For the same molecule, the EC50 with FGFR2b on KATO III cells is 0.233 µg/mL; in assay [7], 0.0216 µg/mL.
